Measured values: article PMC4606517, “Water-mediated recognition of t1-adenosine anchors Argonaute2 to microRNA targets”

How the values were obtained:
Ago2 A481T = Ago2 A481T (Homo sapiens, UniProt Q9UKV8 1-859, A481T); assay: filter binding; guide-loaded Ago2; target Kd; Filter binding: 30 mM Tris pH 8.0, 0.1 M K acetate, 2 mM Mg acetate, 0.5 mM TCEP, 0.005% NP-40, 0.01 mg/ml yeast tRNA, room temp, 45 min, 0.1 nM target; smFRET: 50 mM Tris pH 8.0, 50 mM NaCl, 60 mM KCl (RISC assembly buffer), 23 C; conditions: protein: recombinant; tags: His6; guide g2-g9 pairs target nt 1-8; 3' overhangs; t1 = target nt 9
Chain of Ago2 A481T (Q9UKV8 whole entry A481T): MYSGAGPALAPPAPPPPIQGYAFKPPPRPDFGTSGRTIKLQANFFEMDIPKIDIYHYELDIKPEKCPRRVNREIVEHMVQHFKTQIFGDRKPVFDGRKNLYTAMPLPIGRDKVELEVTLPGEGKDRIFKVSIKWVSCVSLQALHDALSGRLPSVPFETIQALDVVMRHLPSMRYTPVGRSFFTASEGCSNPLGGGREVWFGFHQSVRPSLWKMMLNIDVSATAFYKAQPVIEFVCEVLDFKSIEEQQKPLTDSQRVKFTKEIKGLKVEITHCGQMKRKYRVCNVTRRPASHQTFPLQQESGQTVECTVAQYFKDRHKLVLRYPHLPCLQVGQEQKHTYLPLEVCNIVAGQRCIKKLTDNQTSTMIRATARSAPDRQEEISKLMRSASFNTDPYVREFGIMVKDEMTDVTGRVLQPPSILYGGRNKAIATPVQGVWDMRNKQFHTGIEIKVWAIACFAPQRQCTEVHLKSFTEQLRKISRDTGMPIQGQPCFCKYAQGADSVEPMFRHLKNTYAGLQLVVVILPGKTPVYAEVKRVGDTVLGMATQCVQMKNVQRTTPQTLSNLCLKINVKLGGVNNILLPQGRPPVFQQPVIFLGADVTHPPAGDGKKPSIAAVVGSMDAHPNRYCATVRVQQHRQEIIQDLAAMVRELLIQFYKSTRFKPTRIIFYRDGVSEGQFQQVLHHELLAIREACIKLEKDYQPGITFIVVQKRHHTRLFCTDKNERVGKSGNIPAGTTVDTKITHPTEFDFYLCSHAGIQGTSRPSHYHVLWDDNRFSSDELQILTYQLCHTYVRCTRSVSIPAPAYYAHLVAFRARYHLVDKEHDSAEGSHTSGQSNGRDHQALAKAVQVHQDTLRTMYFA

Ago2 wild type = Ago2 wild type (Homo sapiens, UniProt Q9UKV8 1-859); assay: as above; conditions: protein: recombinant; tags: His6; guide g2-g9 pairs target nt 1-8; 3' overhangs; t1 = target nt 9
Chain of Ago2 wild type (Q9UKV8 whole entry): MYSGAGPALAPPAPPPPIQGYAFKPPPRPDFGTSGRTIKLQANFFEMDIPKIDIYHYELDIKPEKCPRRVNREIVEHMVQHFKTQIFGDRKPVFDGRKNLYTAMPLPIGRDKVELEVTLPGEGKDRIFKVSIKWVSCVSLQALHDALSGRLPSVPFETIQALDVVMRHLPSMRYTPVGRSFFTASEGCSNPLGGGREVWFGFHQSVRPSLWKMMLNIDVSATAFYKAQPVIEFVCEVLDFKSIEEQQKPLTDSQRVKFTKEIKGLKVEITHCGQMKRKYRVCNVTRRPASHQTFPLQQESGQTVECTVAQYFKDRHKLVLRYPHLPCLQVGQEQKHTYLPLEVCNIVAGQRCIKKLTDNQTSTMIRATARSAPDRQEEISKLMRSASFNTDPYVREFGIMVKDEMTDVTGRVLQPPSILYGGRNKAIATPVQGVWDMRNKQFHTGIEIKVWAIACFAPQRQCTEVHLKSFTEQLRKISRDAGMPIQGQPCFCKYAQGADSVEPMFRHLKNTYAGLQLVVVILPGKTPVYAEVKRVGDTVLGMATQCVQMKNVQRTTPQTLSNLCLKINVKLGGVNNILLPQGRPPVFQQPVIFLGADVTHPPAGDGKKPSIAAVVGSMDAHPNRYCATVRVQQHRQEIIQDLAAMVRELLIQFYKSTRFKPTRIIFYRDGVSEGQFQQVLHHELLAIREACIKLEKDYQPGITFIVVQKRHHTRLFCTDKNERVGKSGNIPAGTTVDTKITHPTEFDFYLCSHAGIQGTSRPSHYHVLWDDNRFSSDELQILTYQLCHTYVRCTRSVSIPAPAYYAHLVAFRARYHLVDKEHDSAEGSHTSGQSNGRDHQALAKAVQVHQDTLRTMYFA

Row | Binder | Kd (Ago2 A481T) [nM] | Kd (Ago2 wild type) [nM]
1 | guide + t1A target (dsRNA, 5'-phosphate on guide) RNA 1: UUCACAUUGCCCAAGUCUCUU RNA 2: CAAUGUGAAAA | 1.5 ± 0.13 | 0.75 ± 0.04
2 | guide + t1G target (dsRNA, 5'-phosphate on guide) RNA 1: UUCACAUUGCCCAAGUCUCUU RNA 2: CAAUGUGAGAA | 1.8 ± 0.11 | 1.9 ± 0.09
3 | guide + t1U target (dsRNA, 5'-phosphate on guide) RNA 1: UUCACAUUGCCCAAGUCUCUU RNA 2: CAAUGUGAUAA | – | 1.9 ± 0.1
4 | guide + t1C target (dsRNA, 5'-phosphate on guide) RNA 1: UUCACAUUGCCCAAGUCUCUU RNA 2: CAAUGUGACAA | – | 1.8 ± 0.12
5 | guide + t1DAP target (dsRNA, 5'-phosphate on guide; target nt 9 = 2,6-diaminopurine (written A)) RNA 1: UUCACAUUGCCCAAGUCUCUU RNA 2: CAAUGUGAAAA | – | 0.45 ± 0.03
6 | guide + t1m6A target (dsRNA, 5'-phosphate on guide; target nt 9 = N6-methyladenosine (written A)) RNA 1: UUCACAUUGCCCAAGUCUCUU RNA 2: CAAUGUGAAAA | – | 1.8 ± 0.12
